Measured values published in publication PMC7954794, “Protein context shapes the specificity of SH3 domain-mediated interactions in vivo” (Nature Communications, 2021).

Assays:
Assay type in all cases: cell-based, Saccharomyces cerevisiae
[1] = system: Hua2; experiment: Deep mutational scanning of Abp1 SH3, Abp1-Hua2 DHFR-PCA (DMS score); settings: for HUA2_MTX2 (frequency normalized to the reference condition): Abp1 SH3 amino acid mutation; for HUA2_MTX2: amino acid level
Method in brief: (§1)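 Yeast, genomic ABP1 SH3 single-codon mutant pool (58 positions, NNN) × DHFR F[3] prey; diploid selection, then 2 cycles PCA selection medium, 72 h, 30 °C each. Readout: Illumina sequencing of SH3 locus vs. unselected diploid reference (S2). Biological duplicates.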

[2] = system: Lsb3; experiment: Deep mutational scanning of Abp1 SH3, Abp1-Lsb3 DHFR-PCA (DMS score); settings: for LSB3_MTX2 (frequency normalized to the reference condition): Abp1 SH3 amino acid mutation; for LSB3_MTX2: amino acid level
Method in brief: as §1

[3] = system: Hua2 and Lsb3; experiment: Deep mutational scanning quadrant of Abp1 SH3 (Hua2 and Lsb3 DMS scores); settings: class of mutation by HUA2 and LSB3 DMS scores
[4] = system: Hua2 and Lsb3; experiment: Deep mutational scanning of Abp1 SH3: combined class (quadrant) from Abp1-Hua2 and Abp1-Lsb3 DHFR-PCA; settings: class by DMS scores with Hua2 and Lsb3 (Neutral, Dest. both, Dest. Hua2, Dest. Lsb3)
[5] = system: Hua2 and Lsb3; experiment: Deep mutational scanning of Abp1 SH3, quadrant classification from Hua2 and Lsb3 DMS scores; settings: class from hua2sc and lsb3sc
[6] = system: Hua2 and Lsb3; experiment: Deep mutational scanning of Abp1 SH3, quadrant by Hua2 and Lsb3 DMS scores
[7] = frequencies scaled to the synonymous mutation distribution, HUA2 prey
[8] = frequencies scaled to the synonymous mutation distribution, LSB3 prey
[9] = Abp1-Hua2, frequencies scaled to the synonymous mutation distribution (DMS score)
[10] = Abp1-Hua2 DHFR-PCA, frequencies normalized to the reference condition
[11] = Abp1-Lsb3, frequencies scaled to the synonymous mutation distribution (DMS score)
[12] = Abp1-Lsb3 DHFR-PCA, frequencies normalized to the reference condition

Molecule	HUA2_MTX2 (frequency normalized to the reference condition) ([1]; HUA2 prey, MTX2)	hua2sc (DMS score) [1, 7]	LSB3_MTX2 (frequency normalized to the reference condition) ([2]; LSB3 prey, MTX2)	lsb3sc (DMS score) [2, 8]	quadrant [3]	hua2sc (DMS score) [1, 9]	HUA2_MTX2 [1, 10]	lsb3sc (DMS score) [2, 11]	LSB3_MTX2 [2, 12]	quadrant [5]	other results
ABP1 A3A (protein, UniProt P15891 2-592, looked up, synonymous A3A codon) Actin-binding protein: ALEPIDYTTHSREIDAEYLKIVRGSDPDTTWLIISPNAKKEYEPESTGSSFHDFLQLFDETKVQYGLARVSPPGSDVEKIIIIGWCPDSAPLKTRASFAANFAAVANNLFKGYHVQVTARDEDDLDENELLMKISNAAGARYSIQTSSKQQGKASTPPVKKSFTPSKSPAPVSKKEPVKTPSPAPAAKISSRVNDNNDDDDWNEPELKERDFDQAPLKPNQSSYKPIGKIDLQKVIAEEKAKEDPRLVQKPTAAGSKIDPSSDIANLKNESKLKRDSEFNSFLGTTKPPSMTESSLKNDDDKVIKGFRNEKSPAQLWAERKAKQNSGNAETKAEAPKPEVPEDEPEGEPDVKDLKSKFEGLAASEKEEEEMENKFAPPPKKSEPTIISPKPFSKPQEPVKAEEAEQPKTDYKKIGNPLPGMHIEADNEEEPEENDDDWDDDEDEAAQPPLPSRNVASGAPVQKEEPEQEEIAPSLPSRNSIPAPKQEEAPEQAPEEEIEEEAEEAAPQLPSRSSAAPPPPPRRATPEKKPKENPWATAEYDYDAAEDNELTFVENDKIINIEFVDDDWWLGELEKDGSKGLFPSNYVSLGN	1.172	-0.4405	1.292	-0.2087	Neutral	–	–	–	–	–	–
ABP1 E29E (protein, UniProt P15891 2-592, looked up, synonymous codon change E29E) Actin-binding protein: ALEPIDYTTHSREIDAEYLKIVRGSDPDTTWLIISPNAKKEYEPESTGSSFHDFLQLFDETKVQYGLARVSPPGSDVEKIIIIGWCPDSAPLKTRASFAANFAAVANNLFKGYHVQVTARDEDDLDENELLMKISNAAGARYSIQTSSKQQGKASTPPVKKSFTPSKSPAPVSKKEPVKTPSPAPAAKISSRVNDNNDDDDWNEPELKERDFDQAPLKPNQSSYKPIGKIDLQKVIAEEKAKEDPRLVQKPTAAGSKIDPSSDIANLKNESKLKRDSEFNSFLGTTKPPSMTESSLKNDDDKVIKGFRNEKSPAQLWAERKAKQNSGNAETKAEAPKPEVPEDEPEGEPDVKDLKSKFEGLAASEKEEEEMENKFAPPPKKSEPTIISPKPFSKPQEPVKAEEAEQPKTDYKKIGNPLPGMHIEADNEEEPEENDDDWDDDEDEAAQPPLPSRNVASGAPVQKEEPEQEEIAPSLPSRNSIPAPKQEEAPEQAPEEEIEEEAEEAAPQLPSRSSAAPPPPPRRATPEKKPKENPWATAEYDYDAAEDNELTFVENDKIINIEFVDDDWWLGELEKDGSKGLFPSNYVSLGN	–	–	–	–	–	–	–	–	–	–	HUA2_MTX2 (frequencies normalized to the reference condition) ([1]; Abp1-Hua2 DHFR-PCA, MTX2, frequencies normalized to the reference condition): 1.834; hua2sc (DMS score) ([1]; Hua2, frequencies scaled to the synonymous mutation distribution (DMS score)): 0.2208; LSB3_MTX2 (frequencies normalized to the reference condition) ([2]; Abp1-Lsb3 DHFR-PCA, MTX2, frequencies normalized to the reference condition): 1.788; lsb3sc (DMS score) ([2]; Lsb3, frequencies scaled to the synonymous mutation distribution (DMS score)): 0.2879; quadrant [4]: Neutral
ABP1 T4T (protein, UniProt P15891 2-592, looked up, synonymous T4T codon change) Actin-binding protein: ALEPIDYTTHSREIDAEYLKIVRGSDPDTTWLIISPNAKKEYEPESTGSSFHDFLQLFDETKVQYGLARVSPPGSDVEKIIIIGWCPDSAPLKTRASFAANFAAVANNLFKGYHVQVTARDEDDLDENELLMKISNAAGARYSIQTSSKQQGKASTPPVKKSFTPSKSPAPVSKKEPVKTPSPAPAAKISSRVNDNNDDDDWNEPELKERDFDQAPLKPNQSSYKPIGKIDLQKVIAEEKAKEDPRLVQKPTAAGSKIDPSSDIANLKNESKLKRDSEFNSFLGTTKPPSMTESSLKNDDDKVIKGFRNEKSPAQLWAERKAKQNSGNAETKAEAPKPEVPEDEPEGEPDVKDLKSKFEGLAASEKEEEEMENKFAPPPKKSEPTIISPKPFSKPQEPVKAEEAEQPKTDYKKIGNPLPGMHIEADNEEEPEENDDDWDDDEDEAAQPPLPSRNVASGAPVQKEEPEQEEIAPSLPSRNSIPAPKQEEAPEQAPEEEIEEEAEEAAPQLPSRSSAAPPPPPRRATPEKKPKENPWATAEYDYDAAEDNELTFVENDKIINIEFVDDDWWLGELEKDGSKGLFPSNYVSLGN	1.763	0.1499	1.639	0.1386	Neutral	–	–	–	–	–	–
ABP1 K42K (protein, UniProt P15891 2-592, looked up, synonymous codon K42K) Actin-binding protein: ALEPIDYTTHSREIDAEYLKIVRGSDPDTTWLIISPNAKKEYEPESTGSSFHDFLQLFDETKVQYGLARVSPPGSDVEKIIIIGWCPDSAPLKTRASFAANFAAVANNLFKGYHVQVTARDEDDLDENELLMKISNAAGARYSIQTSSKQQGKASTPPVKKSFTPSKSPAPVSKKEPVKTPSPAPAAKISSRVNDNNDDDDWNEPELKERDFDQAPLKPNQSSYKPIGKIDLQKVIAEEKAKEDPRLVQKPTAAGSKIDPSSDIANLKNESKLKRDSEFNSFLGTTKPPSMTESSLKNDDDKVIKGFRNEKSPAQLWAERKAKQNSGNAETKAEAPKPEVPEDEPEGEPDVKDLKSKFEGLAASEKEEEEMENKFAPPPKKSEPTIISPKPFSKPQEPVKAEEAEQPKTDYKKIGNPLPGMHIEADNEEEPEENDDDWDDDEDEAAQPPLPSRNVASGAPVQKEEPEQEEIAPSLPSRNSIPAPKQEEAPEQAPEEEIEEEAEEAAPQLPSRSSAAPPPPPRRATPEKKPKENPWATAEYDYDAAEDNELTFVENDKIINIEFVDDDWWLGELEKDGSKGLFPSNYVSLGN	–	–	–	–	–	-0.1876	1.425	0.08611	1.586	Neutral	–
ABP1 G44G (protein, UniProt P15891 2-592, looked up, synonymous codon change G44G) Actin-binding protein: ALEPIDYTTHSREIDAEYLKIVRGSDPDTTWLIISPNAKKEYEPESTGSSFHDFLQLFDETKVQYGLARVSPPGSDVEKIIIIGWCPDSAPLKTRASFAANFAAVANNLFKGYHVQVTARDEDDLDENELLMKISNAAGARYSIQTSSKQQGKASTPPVKKSFTPSKSPAPVSKKEPVKTPSPAPAAKISSRVNDNNDDDDWNEPELKERDFDQAPLKPNQSSYKPIGKIDLQKVIAEEKAKEDPRLVQKPTAAGSKIDPSSDIANLKNESKLKRDSEFNSFLGTTKPPSMTESSLKNDDDKVIKGFRNEKSPAQLWAERKAKQNSGNAETKAEAPKPEVPEDEPEGEPDVKDLKSKFEGLAASEKEEEEMENKFAPPPKKSEPTIISPKPFSKPQEPVKAEEAEQPKTDYKKIGNPLPGMHIEADNEEEPEENDDDWDDDEDEAAQPPLPSRNVASGAPVQKEEPEQEEIAPSLPSRNSIPAPKQEEAPEQAPEEEIEEEAEEAAPQLPSRSSAAPPPPPRRATPEKKPKENPWATAEYDYDAAEDNELTFVENDKIINIEFVDDDWWLGELEKDGSKGLFPSNYVSLGN	–	–	–	–	–	–	–	–	–	–	HUA2_MTX2 = frequencies normalized to the reference condition ([1]; Hua2, MTX2, amino acid format): 1.505; hua2sc = Frequencies scaled to the synonymous mutation distribution (DMS score) ([1]; Hua2, scaled to the synonymous mutation distribution): -0.1077; LSB3_MTX2 = frequencies normalized to the reference condition ([2]; Lsb3, MTX2, amino acid format): 1.253; lsb3sc = Frequencies scaled to the synonymous mutation distribution (DMS score) ([2]; Lsb3, scaled to the synonymous mutation distribution): -0.247; quadrant [6]: Neutral
ABP1 L37L (protein, UniProt P15891 2-592, looked up, synonymous codon change L37L in SH3) Actin-binding protein: ALEPIDYTTHSREIDAEYLKIVRGSDPDTTWLIISPNAKKEYEPESTGSSFHDFLQLFDETKVQYGLARVSPPGSDVEKIIIIGWCPDSAPLKTRASFAANFAAVANNLFKGYHVQVTARDEDDLDENELLMKISNAAGARYSIQTSSKQQGKASTPPVKKSFTPSKSPAPVSKKEPVKTPSPAPAAKISSRVNDNNDDDDWNEPELKERDFDQAPLKPNQSSYKPIGKIDLQKVIAEEKAKEDPRLVQKPTAAGSKIDPSSDIANLKNESKLKRDSEFNSFLGTTKPPSMTESSLKNDDDKVIKGFRNEKSPAQLWAERKAKQNSGNAETKAEAPKPEVPEDEPEGEPDVKDLKSKFEGLAASEKEEEEMENKFAPPPKKSEPTIISPKPFSKPQEPVKAEEAEQPKTDYKKIGNPLPGMHIEADNEEEPEENDDDWDDDEDEAAQPPLPSRNVASGAPVQKEEPEQEEIAPSLPSRNSIPAPKQEEAPEQAPEEEIEEEAEEAAPQLPSRSSAAPPPPPRRATPEKKPKENPWATAEYDYDAAEDNELTFVENDKIINIEFVDDDWWLGELEKDGSKGLFPSNYVSLGN	–	–	–	–	–	-0.0161	1.597	0.2222	1.722	Neutral	–
